Assay results reported in patent publication US6710030B1, “Contortrostain (CN) and methods for its use in preventing metastasis and other conditions” (University of Southern California, priority 1993, dated 2004).
“Also recorded” adds a separate entry of the source. Like-named read-outs stand apart in the source and are kept apart here.

What was measured:
MDA-MB-435 cells [1] = test: Adhesion of MDA-MB-435 cells to immobilized ECM proteins; type: cell-based, human
Description: The effect of CN on binding of highly metastatic human breast cancer cells, MDA-MB-435 cell line, to ECM proteins was examined. Human fibronectin and vitronectin were immobilized in the wells of 96-well microtiter plates. […] In a variation of the above experiments, CN was immobilized. […] Referring to FIGS. 12 and 13, varying concentrations of GRGDSP (FIG. 12) or EDTA (FIG. 13) were used to inhibit binding of human mammary carcinoma cells to immobilized CN. CN was at 0.1 μg/well. The vertical line at each data point indicates the y-axis error bar. All experiments were conducted as three sets of triplicates for each data point.

MDA-MB-435 cells [2] = test: Invasion of MDA-MB-435 cells through Matrigel-coated invasion chamber; type: cell-based, human; conditions: 48 hrs
Description: 2.5×10^3 MDA-MB-435 cells treated with various concentration of CN were allowed to migrate across the Matrigel layer for 48 hrs. Assays at each CN concentration were performed in triplicate. Cells invaded through the Matrigel filter were fixed and stained. Invaded cells were quantitated with microscope by the mean of cell numbers in three randomly selected vision field.

MDA-MB-435 tumor on CAM = test: MDA-MB-435 tumor induced angiogenesis on chick embryo chorioallantoic membrane (CAM); type: in vivo
Description: MDA-MB-435 tumor masses were inoculated on CAM of 10-day chick embryos. CN at various dosages were injected intravenously into CAM on day 2 post-inoculation. […] Chick embryo is immunodeficient, and thus allows the growth of implanted MDA-MB-435 tumor. The embryos are incubated at 37° C. with humidity at 60%. CN at various dosages was injected intravenously into CAM on day 2 post-inoculation. […] On the top (FIG. 16A) is the control embryo. The vessels are distributed in a convergent manner with the tumor mass in the center. In the middle (FIG. 16B) is the CAM treated with 20 μg of CN. On the bottom (FIG. 16C) is the CAM treated by 150 μg of CN.

αvβ3 293 cells = test: Phosphotyrosine immunoblot, 293 cells expressing αvβ3; type: cell-based, human; conditions: 10 min
Description: Cell culture, preparation and stimulation—T24 cells were maintained in RPMI 1640 medium containing 5% fetal bovine serum, and MDA-MB-435 and 293 cells were maintained in Dulbecco's modified Eagle's medium with 10% serum at 37° C. in 5% CO2. Cells were washed with phosphate-buffered saline (PBS) and starved in the appropriate serum-free medium for 6 h at 37° C. Cells were detached by brief treatment with 0.05% trypsin/0.02% EDTA in PBS and collected by centrifugation, resuspended in soybean trypsin inhibitor (1 mg/ml in serum-free medium), and washed in 2% bovine serum albumin/serum-free medium. Cells were maintained in suspension for 1 h in 2% bovine serum albumin/serum-free medium at 37° C. with end-over-end agitation. Quiescent cells (3×10^6/ml) were treated with disintegrins or other reagents while in suspension, or were allowed to adhere to Matrigel (Becton Dickinson, Bedford, Mass.) diluted 1:100 with serum-free medium during treatment. […]
Contortrostatin- induced signaling events are mediated by the αvβ3 integrin—The integrinbinding specificities of echistatin and flavoridin have been determined previously (Niewiarowski et al., supra; and Pfaff, M., McLane, M. A., Beviglia, L., Niewiarowski, S., and Timpl, R. (1994) Cell Adhesion and Communication 2, 491-501). […]

Solubility in water = type: physicochemical
Description: CN may be administered by a variety of heretofore known means suitable for delivery thereof into the blood stream in substantial amounts. Intravenous administration of CN in a suitable liquid vehicle or excipient is presently contemplated as the preferred route of administration. […] Alternatively, CN may be administered orally (in the form of tablets or capsules formulated with a suitable binder or excipient material, or in the form of aqueous or oily suspensions, solutions, emulsions, syrups or elixirs) or as a parenteral suspension. As is well known in the art, adjuvants such as local anesthetics, preservatives, buffering agents, lubricants, wetting agents, colorants, flavorings, fillers and diluents may suitably be included in any of these formulations.

[3] = system: human fibrosarcoma (HT-1080) cells; conditions: cited from earlier work

B1: contortrostatin (protein)
chain: DAPANPCCDAATCKLTTGSQCADGLCCDQCKFMKEGTVCRRARGDDLDDYCNGISAGCPRNPFHA
MDA-MB-435 cells [1]
  effect on adhesion to human or rat type I collagen: minimal effect
MDA-MB-435 cells [1]; immobilized human fibronectin, read-out: IC50 for adhesion to fibronectin
  IC50: 18 nM
MDA-MB-435 cells [1]; immobilized human vitronectin, read-out: IC50 for adhesion to vitronectin
  IC50: 1.5 nM
MDA-MB-435 cells [2]
  invasion of synthetic basement membrane by MDA-MB-435 cells: inhibitory effect
MDA-MB-435 tumor on CAM; 20 μg of CN
  tumor mass on CAM: smaller than that on control CAM
MDA-MB-435 tumor on CAM; 20 μg of CN intravenously
  tumor induced angiogenesis (vessels): thinner and less dense than control
MDA-MB-435 tumor on CAM; 150 μg of CN
  tumor mass on CAM: necrotic tumor mass with volume significantly smaller than control and low dose CN
MDA-MB-435 tumor on CAM; 150 μg of CN intravenously
  tumor induced angiogenesis (vessels): the vessels are even thinner and the convergent distribution pattern disappears completely
αvβ3 293 cells
  tyrosine phosphorylation: robust induction of tyrosine phosphorylation; also recorded: increased tyrosine phosphorylation
Solubility in water
  solubility: soluble in water
[3]; CN at 1 μg/ml
  Inhibition of HT1080 cell binding to fibronectin: 89%
[3]; CN at 5 μg/ml
  Inhibition of HT1080 cell binding to fibronectin: 85%
